Experimental data reported in patent US20150110766A1 (UNIVERSITY ULM, published 2015).

What was measured:
C3b = biological target: T1, C3b (UniProt P01024 749-1663; P01024 23-667); assay: SPR (Biacore 2000), analyte over C3b deposited on CM5 chip
T1 construct: Immobilised on a CM5 chip; A small amount was amine-coupled and the majority deposited via the reactive thioester by on-chip AP convertase; also called complement fragment C3b; deposited C3b
Protocol: (§1) C3-fragment binding. Equal amounts of C3b (˜4000 RUs) (from Complement Technology, Tyler, Tex., USA) were immobilized onto 3 flow-cells (fc) of a CM5 chip (Biacore) by initial amine-coupling of a small amount of C3b onto fc 2-4 and further deposition of the vast majority of C3b molecules via its reactive thioester through an on-chip assembly of the AP-convertase (C3bBb) and subsequent exposure to and proteolytic activation of C3 (24). The surface was washed overnight with a buffer flow of 10 ul/min to allow stabilization of the physiologically prepared C3b-surface. […] C3b molecules on fc3 and fc4 were processed with FI in the presence of the cofactors FH or soluble complement receptor 1 (sCR1) to yield iC3b or C3dg (the latter as described in Morgan et al., 2011, supra), respectively. A dummy surface (fc1) was prepared by two consecutive cycles of surface activation with standard amine coupling reagents and quenching by ethanolamine.
(§2) Due to the physiological deposition of C3b and subsequent trimming with FI, both, the iC3b and the C3dg, surfaces likely carry miniscule amounts of residual C3b molecules, which were not readily accessible by FI. […] Deposition, proteolytic processing and all interactions studies were performed in HBS-P+buffer (i.e. 10 mM HEPES-buffered 150 mM saline (pH7.4), 0.005% (v/v) surfactant p20, 1 mM MgCl₂) at 25° C.

iC3b = biological target: T2, iC3b (UniProt P01024 23-667; P01024 749-1303; P01024 1321-1663); assay: SPR (Biacore 2000), analyte over iC3b surface on CM5 chip
T2 construct: Made on the chip from deposited C3b with FI and the cofactor FH
T2 sequence (P01024 23-667, chain 1 of 3): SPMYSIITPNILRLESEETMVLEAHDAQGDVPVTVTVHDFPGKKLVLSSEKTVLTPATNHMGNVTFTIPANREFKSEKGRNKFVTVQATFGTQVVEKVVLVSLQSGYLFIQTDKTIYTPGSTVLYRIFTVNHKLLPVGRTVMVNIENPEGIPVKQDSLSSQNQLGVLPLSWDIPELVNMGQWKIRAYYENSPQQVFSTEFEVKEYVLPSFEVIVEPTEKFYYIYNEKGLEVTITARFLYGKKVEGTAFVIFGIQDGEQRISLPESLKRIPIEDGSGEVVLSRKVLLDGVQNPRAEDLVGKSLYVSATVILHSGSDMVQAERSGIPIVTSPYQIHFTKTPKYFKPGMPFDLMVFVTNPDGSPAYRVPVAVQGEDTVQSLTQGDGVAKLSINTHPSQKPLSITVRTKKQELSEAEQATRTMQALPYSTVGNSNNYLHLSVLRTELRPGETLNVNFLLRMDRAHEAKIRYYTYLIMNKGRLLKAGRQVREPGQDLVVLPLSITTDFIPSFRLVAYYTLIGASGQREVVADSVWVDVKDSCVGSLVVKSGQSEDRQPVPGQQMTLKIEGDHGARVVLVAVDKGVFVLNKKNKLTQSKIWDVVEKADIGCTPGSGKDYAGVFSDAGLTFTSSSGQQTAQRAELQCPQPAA
T2 sequence (P01024 749-1303, chain 2 of 3): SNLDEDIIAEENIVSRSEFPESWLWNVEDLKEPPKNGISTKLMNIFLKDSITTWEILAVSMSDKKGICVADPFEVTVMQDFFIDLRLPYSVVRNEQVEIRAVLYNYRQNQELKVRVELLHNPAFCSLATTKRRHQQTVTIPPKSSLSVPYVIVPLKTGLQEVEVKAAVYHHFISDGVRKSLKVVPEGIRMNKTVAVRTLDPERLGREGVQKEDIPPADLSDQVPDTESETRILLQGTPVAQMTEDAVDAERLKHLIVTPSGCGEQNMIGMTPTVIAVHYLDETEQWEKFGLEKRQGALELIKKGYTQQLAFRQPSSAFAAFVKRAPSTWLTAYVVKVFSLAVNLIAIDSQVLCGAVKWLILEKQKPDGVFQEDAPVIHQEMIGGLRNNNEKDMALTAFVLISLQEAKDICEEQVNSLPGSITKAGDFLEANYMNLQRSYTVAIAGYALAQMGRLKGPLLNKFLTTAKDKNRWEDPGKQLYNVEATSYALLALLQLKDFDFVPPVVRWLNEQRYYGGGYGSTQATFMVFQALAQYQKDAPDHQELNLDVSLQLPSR
T2 sequence (P01024 1321-1663, chain 3 of 3): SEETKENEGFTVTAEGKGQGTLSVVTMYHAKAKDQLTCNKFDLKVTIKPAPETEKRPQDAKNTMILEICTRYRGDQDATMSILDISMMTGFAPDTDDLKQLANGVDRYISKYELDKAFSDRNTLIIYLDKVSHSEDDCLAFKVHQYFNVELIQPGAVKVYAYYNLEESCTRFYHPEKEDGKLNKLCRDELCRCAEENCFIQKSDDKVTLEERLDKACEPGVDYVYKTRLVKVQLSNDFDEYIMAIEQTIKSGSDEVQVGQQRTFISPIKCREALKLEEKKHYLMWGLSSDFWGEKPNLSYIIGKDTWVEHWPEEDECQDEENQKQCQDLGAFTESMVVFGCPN
Protocol: as §1, §2

C3dg = biological target: T3, C3dg (UniProt P01024 955-1303); assay: SPR (Biacore 2000), analyte over C3dg surface on CM5 chip
T3 construct: Made on the chip from deposited C3b with FI and the cofactor sCR1
T3 sequence (P01024 955-1303 limits assumed): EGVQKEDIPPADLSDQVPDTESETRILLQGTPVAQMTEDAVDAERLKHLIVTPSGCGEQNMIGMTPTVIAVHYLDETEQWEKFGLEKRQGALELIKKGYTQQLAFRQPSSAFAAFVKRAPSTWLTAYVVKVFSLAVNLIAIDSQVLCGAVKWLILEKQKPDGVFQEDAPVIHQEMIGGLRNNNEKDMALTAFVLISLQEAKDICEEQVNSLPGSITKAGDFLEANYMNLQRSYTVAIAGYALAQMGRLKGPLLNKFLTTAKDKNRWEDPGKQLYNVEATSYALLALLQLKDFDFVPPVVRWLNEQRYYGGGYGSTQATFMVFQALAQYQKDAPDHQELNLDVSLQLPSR
Protocol: as §1, §2

T1 sequence (P01024 749-1663 limits assumed, chain 1 of 2): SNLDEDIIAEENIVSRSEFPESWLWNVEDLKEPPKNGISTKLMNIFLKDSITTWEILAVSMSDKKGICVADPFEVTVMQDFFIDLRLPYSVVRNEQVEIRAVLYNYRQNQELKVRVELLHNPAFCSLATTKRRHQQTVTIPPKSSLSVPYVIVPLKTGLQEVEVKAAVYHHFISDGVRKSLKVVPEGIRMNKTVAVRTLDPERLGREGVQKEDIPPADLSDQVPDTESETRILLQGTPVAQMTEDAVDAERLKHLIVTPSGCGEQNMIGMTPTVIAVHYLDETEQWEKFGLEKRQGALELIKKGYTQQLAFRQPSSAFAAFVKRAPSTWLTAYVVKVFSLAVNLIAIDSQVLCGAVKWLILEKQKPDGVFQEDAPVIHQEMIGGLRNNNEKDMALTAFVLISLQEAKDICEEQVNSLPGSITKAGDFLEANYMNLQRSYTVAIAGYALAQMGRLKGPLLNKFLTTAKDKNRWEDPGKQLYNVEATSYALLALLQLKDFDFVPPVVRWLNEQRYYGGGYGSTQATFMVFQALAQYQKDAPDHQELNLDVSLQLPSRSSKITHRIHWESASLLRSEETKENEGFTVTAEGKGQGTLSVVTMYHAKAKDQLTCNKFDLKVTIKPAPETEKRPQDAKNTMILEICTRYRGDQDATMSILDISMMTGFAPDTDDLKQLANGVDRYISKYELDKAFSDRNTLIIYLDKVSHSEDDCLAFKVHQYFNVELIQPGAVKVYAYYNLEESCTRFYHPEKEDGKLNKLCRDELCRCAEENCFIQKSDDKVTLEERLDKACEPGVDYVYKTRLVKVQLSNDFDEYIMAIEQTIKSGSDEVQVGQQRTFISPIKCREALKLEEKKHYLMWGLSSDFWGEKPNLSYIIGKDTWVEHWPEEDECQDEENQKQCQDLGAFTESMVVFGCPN
T1 sequence (P01024 23-667 limits assumed, chain 2 of 2): as the sequence (P01024 23-667, chain 1 of 3) above

binding result (C3b): no binding
binding result (iC3b): no binding
binding result (C3dg): no binding
B1: FH15-18 (other, UniProt P08603 868-1104, looked up)
chain: IPCSQPPQIEHGTINSSRSSQESYAHGTKLSYTCEGGFRISEENETTCYMGKWSSPPQCEGLPCKSPPEISHGVVAHMSDSYQYGEEVTYKCFEGFGIDGPAIAKCLGEKWSHPPSCIKTDCLSLPSFENAIPMGEKKDVYKAGEQVTYTCATYYKMDGASNVTCINSRWTGRPTCRDTSCVNPPTVQNAYIVSRQMSKYPSGERVRYQCRSPYEMFGDEEVMCLNGNWTEPPQCKD
notes: domain: CCPs 15-18; Negative control analyte in SPR
